# In article PMC9156741, “Blocking phospholamban with VHH intrabodies enhances contractility and relaxation in heart failure” (Nature Communications, 2022):
# T1: pS16 PLN peptide VI (biotin-HPDP-Cys-EKVQYLTRSAIRRApSTIEMPQQARQ-NH2) (phosphoserine at Ser 16 (pS in the printed sequence); biotin-HPDP on the N-terminal Cys (cysteine persulphide); C-terminal amidation)
# T1 peptide: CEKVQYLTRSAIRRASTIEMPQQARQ
# T2: PLN peptide V (biotin-HPDP-Cys-EKVQYLTRSAIRRASTIEMPQQARQ-NH2) (biotin-HPDP on the N-terminal Cys (cysteine persulphide); C-terminal amidation)
# T2 peptide: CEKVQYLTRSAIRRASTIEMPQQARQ
# T3: pS16 PLN peptide VI (biotin-HPDP-Cys-EKVQYLTRSAIRRApSTIEMPQQARQ-NH2) (phosphoserine at Ser 16 (pS in the printed sequence); biotin-HPDP on the N-terminal Cys (cysteine persulphide); C-terminal amidation)
# T3 construct: added N-terminal cysteine residue that carries biotin-HPDP; phospholamban (PLN), stretch of the cytoplasmic regulatory domain, phosphorylated at Ser 16; also called p16S PLN peptide; source: synthetic peptide (Bachem, Switzerland)
# T3 peptide: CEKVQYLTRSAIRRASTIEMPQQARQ
# T4: PLN peptide V (biotin-HPDP-Cys-EKVQYLTRSAIRRASTIEMPQQARQ-NH2) (biotin-HPDP on the N-terminal Cys (cysteine persulphide); C-terminal amidation)
# T4 construct: added N-terminal cysteine residue that carries biotin-HPDP; phospholamban (PLN), stretch of the cytoplasmic regulatory domain; also called non-phosphorylated PLN peptide; source: synthetic peptide (Bachem, Switzerland)
# T4 peptide: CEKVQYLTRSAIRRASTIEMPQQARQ
# Columns and labels:
# [1] = target: pS16 PLN peptide VI (biotin-HPDP-Cys-…p…-NH2); experiment: SPR; Biacore T200; peptide V or VI immobilised on streptavidin SA chip (50-100 RU); VHH as analyte, single-cycle kinetics with five increasing concentrations; PBS pH 7.4 + 0.05% Tween 20; 1:1 Langmuir model
# [2] = target: T1, pS16 PLN peptide VI …; experiment: SPR; pS16 phosphorylated
# [3] = target: T2, PLN peptide V …; experiment: SPR
# [4] = target: T3, pS16 PLN peptide VI …; experiment: SPR; Biacore T200; peptide V or VI immobilised on streptavidin SA chip (50-100 RU); VHH2 as analyte, single-cycle kinetics; PBS pH 7.4 + 0.05% Tween 20; bivalent analyte model; apparent Kd; settings: both partners purified
# [5] = target: T4, PLN peptide V …; experiment: as above; settings: both partners purified
# [6] = target: T2, PLN peptide V …; experiment: SPR
# [7] = target: T1, pS16 PLN peptide VI …; experiment: SPR; pS16 phosphorylated; kinetic fit
# [8] = target: T3, pS16 PLN peptide VI …; experiment: SPR; Biacore T200; peptide V or VI immobilised on streptavidin SA chip (50-100 RU); VHH as analyte, single-cycle kinetics with five increasing concentrations; PBS pH 7.4 + 0.05% Tween 20; 1:1 Langmuir model; settings: both partners purified
# [9] = target: T4, PLN peptide V …; experiment: as above; settings: both partners purified
Binder,Kd [1] [nM],koff [2] [s⁻¹],Kd [3] [nM],Kd [4] [nM],Kd [5] [nM],koff [6] [s⁻¹],Kd [7] [nM],Kd [8] [nM],Kd [9] [nM]
VHH C6 (VHH) VHH: EVQLQESGGGLVQAGGSLRLSCAASGFTLYAMGWFRQAPGKEREFVAAITPHGSTTYYADSVKGRFTISRDNAKNTVYLQMNSLKPEDTAVYYCHTYYSGSWGQGTQVTVSS,680,0.33,–,–,–,–,–,–,–
"VHH2 B4B4 (VHH, N-terminal VHH B4 domain; (Gly3Ser)3 linker, as named in the methods and encoded by the printed primers; C-terminal VHH B4 domain; Bivalent VHH on one chain; also called bivalent variant of VHH B4; bivalent VHH2 B4B4; source: E. coli HB2151 (pHEN4 vector); expressed and purified according to previously described protocols) EVQLQESGGGLVQAGGSLRLSCAASGFSFYRHAMGWFRQAPGKEREWVAEIDWEGGYTYYADSVKGRFTISRDNAKNTVYLQMNSLKPEDTAVYYCAAGRDLYAYWGQGTQVTVSSGGGSGGGSGGGSEVQLQESGGGLVQAGGSLRLSCAASGFSFYRHAMGWFRQAPGKEREWVAEIDWEGGYTYYADSVKGRFTISRDNAKNTVYLQMNSLKPEDTAVYYCAAGRDLYAYWGQGTQVTVSS",–,0.0052,0.1,1,0.15,0.00011,–,–,–
"VHH B4 (VHH, VHH B4, from the synthetic LlamdA phage-display VHH library (llama VHH framework); also called clone B4; source: E. coli HB2151, small-scale cultures induced with IPTG (ELISA); expressed and purified according to previously described protocols (SPR)) VHH: EVQLQESGGGLVQAGGSLRLSCAASGFSFYRHAMGWFRQAPGKEREWVAEIDWEGGYTYYADSVKGRFTISRDNAKNTVYLQMNSLKPEDTAVYYCAAGRDLYAYWGQGTQVTVSS",–,0.18,–,–,–,0.025,618,682,44
